In article PMC8837605, “In vitro reconstitution of an efficient nucleotide excision repair system using mesophilic enzymes from Deinococcus radiodurans” one finds Kd data, which are given here for four molecules.

Series [1] has as its target T1, drUvrA1 (Deinococcus radiodurans, UniProt Q46577 1-1016). Kind of series: fluorescence polarization; 2.5 mM Mg2+, 2.5 mM ATP; Hill 1.34; 50 mM Tris pH 7.5, 50 mM KCl, 5 mM DTT, 0.01% Tween 20, 2.5 mM MgCl2, 2.5 mM ATP, 0.1 mg/mL BSA; room temperature; 2 nM DNA, 0-1 uM drUvrA1 (dimer). Particulars: protein: recombinant; tags: N-terminal His-tag removed by TEV; chain copies: 2; label: 5'-ATTO633 on strand 1; internal fluorescein-dT; blunt. In general terms: In fluorescence polarisation assays a small probe gives low polarisation when free and higher when bound to something large.

The target in series [2] is T1, drUvrA1. Kind of series: fluorescence polarization; 2.5 mM Mg2+, 2.5 mM ATP; Hill 0.92; 50 mM Tris pH 7.5, 50 mM KCl, 5 mM DTT, 0.01% Tween 20, 2.5 mM MgCl2, 2.5 mM ATP, 0.1 mg/mL BSA; room temperature; 2 nM DNA, 0-1 uM drUvrA1 (dimer). Particulars: protein: recombinant; tags: N-terminal His-tag removed by TEV; chain copies: 2; label: 5'-FAM on strand 1; blunt.
For series [3], the target named is T1, drUvrA1. Kind of series: fluorescence polarization; 2.5 mM Mg2+, 2.5 mM ATP; Hill 0.97; 50 mM Tris pH 7.5, 50 mM KCl, 5 mM DTT, 0.01% Tween 20, 2.5 mM MgCl2, 2.5 mM ATP, 0.1 mg/mL BSA; room temperature; 2 nM DNA, 0-1 uM drUvrA1 (dimer). Particulars: protein: recombinant; tags: N-terminal His-tag removed by TEV; chain copies: 2; label: 5'-FAM on strand 1; blunt.

Series [4] deals with T1, drUvrA1. Put plainly: fluorescence polarization; 2.5 mM Mg2+, 2.5 mM ATP; Hill 2.10; 50 mM Tris pH 7.5, 50 mM KCl, 5 mM DTT, 0.01% Tween 20, 2.5 mM MgCl2, 2.5 mM ATP, 0.1 mg/mL BSA; room temperature; 2 nM DNA, 0-1 uM drUvrA1 (dimer). The following applies: protein: recombinant; tags: N-terminal His-tag removed by TEV; chain copies: 2; label: 5'-ATTO633 on strand 1; internal fluorescein-dT; blunt.

T1 sequence (Q46577 whole entry): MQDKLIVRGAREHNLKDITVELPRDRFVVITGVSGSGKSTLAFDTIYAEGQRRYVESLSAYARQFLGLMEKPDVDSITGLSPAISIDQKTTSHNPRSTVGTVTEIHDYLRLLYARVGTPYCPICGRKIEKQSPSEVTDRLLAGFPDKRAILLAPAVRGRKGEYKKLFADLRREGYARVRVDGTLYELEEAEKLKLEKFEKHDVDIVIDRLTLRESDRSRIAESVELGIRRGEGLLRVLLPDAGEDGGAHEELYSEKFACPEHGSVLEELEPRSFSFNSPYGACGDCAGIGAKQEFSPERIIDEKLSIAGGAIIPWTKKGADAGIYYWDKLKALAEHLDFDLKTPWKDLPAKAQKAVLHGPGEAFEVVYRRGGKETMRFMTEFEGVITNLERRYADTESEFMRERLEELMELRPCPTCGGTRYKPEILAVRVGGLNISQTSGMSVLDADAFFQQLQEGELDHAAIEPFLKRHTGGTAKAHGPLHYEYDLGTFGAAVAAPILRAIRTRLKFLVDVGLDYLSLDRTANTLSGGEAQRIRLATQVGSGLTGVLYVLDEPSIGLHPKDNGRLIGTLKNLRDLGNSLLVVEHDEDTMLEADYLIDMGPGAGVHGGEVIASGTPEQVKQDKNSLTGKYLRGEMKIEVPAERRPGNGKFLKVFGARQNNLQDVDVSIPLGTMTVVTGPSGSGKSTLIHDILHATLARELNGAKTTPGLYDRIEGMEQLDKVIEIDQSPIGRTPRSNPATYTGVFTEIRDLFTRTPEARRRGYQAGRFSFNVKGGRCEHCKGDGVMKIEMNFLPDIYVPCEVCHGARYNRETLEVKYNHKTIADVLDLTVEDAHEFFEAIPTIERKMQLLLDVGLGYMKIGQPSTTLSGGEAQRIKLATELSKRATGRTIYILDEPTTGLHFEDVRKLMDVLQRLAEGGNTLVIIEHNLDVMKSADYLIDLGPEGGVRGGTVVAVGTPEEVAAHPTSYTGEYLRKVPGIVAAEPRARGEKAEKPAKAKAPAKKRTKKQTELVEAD

B1: F26-seq1 (dsDNA)
DNA 1: GACTACGTACTGTTACGGCTCCATCTCTACCGCAATCAGGCCAGATCTGC
DNA 2: GCAGATCTGGCCTGATTGCGGTAGAGATGGAGCCGTAACAGTACGTAGTC
modifications: fluorescein-conjugated dT at position 26 of strand 1
As usually defined, the Kd is the constant that tells how readily two partners part at equilibrium. As for B1, the Kd in the series with drUvrA1 [1] turned out to be 0.009 ± 0.0007 µM.

B2: 5'-FAM-seq1 (seq1-FAM) (dsDNA)
DNA 1: GACTACGTACTGTTACGGCTCCATCTCTACCGCAATCAGGCCAGATCTGC
DNA 2: GCAGATCTGGCCTGATTGCGGTAGAGATGGAGCCGTAACAGTACGTAGTC
Consider B2, for which the Kd in the series with drUvrA1 [2] is 0.085 ± 0.012 µM.

B3: B26-seq1 (dsDNA)
DNA 1: GACTACGTACTGTTACGGCTCCATCTCTACCGCAATCAGGCCAGATCTGC
DNA 2: GCAGATCTGGCCTGATTGCGGTAGAGATGGAGCCGTAACAGTACGTAGTC
modifications: biotin-conjugated dT at position 26 of strand 1
Take B3: in the series with drUvrA1 [3], the Kd stood at 0.128 ± 0.015 µM.

B4: F26-seq2 (dsDNA)
DNA 1: GTTAGCGAACGATACCTTCAGTAGATCAAGTCCTAGCTGACCGGTTCGGC
DNA 2: GCCGAACCGGTCAGCTAGGACTTGATCTACTGAAGGTATCGTTCGCTAAC
modifications: fluorescein-conjugated dT at position 26 of strand 1
With B4, the Kd in the series with drUvrA1 [4] amounted to 0.009 ± 0.0005 µM.
